Experimental data as given in publication PMC4879523.

Legend:
[1] = biological target: α subunit of the chimeric Gi protein fused to TagRFP
[2] = biological target: α subunit of the chimeric Gi protein fused to TagRFP; assay: FRET or BRET; sensitized-emission FRET in live HeLa cells 2 days after co-transfection; donor EGFP at the C-terminus of LANCL2 forms, acceptor TagRFP at the N-terminus of the chimeric Gi α subunit; apparent FRET efficiency in plasmamembrane or whole-cell ROIs

[cAMP]i in HeLa cells overexpressing LANCL2-GFP, 30 s after 5 μM ABA, over basal, unstimulated values [1]: 170%
B1: LANCL2 fused to EGFP (receptor)
chain: MGETMSKRLKLHLGGEAEMEERAFVNPFPDYEAAAGALLASGAAEETGCVRPPATTDEPGLPFHQDGKIIHNFIRRIQTKIKDLLQQMEEGLKTADPHDCSAYTGWTGIALLYLQLYRVTCDQTYLLRSLDYVKRTLRNLNGRRVTFLCGDAGPLAVGAVIYHKLRSDCESQECVTKLLQLQRSVVCQESDLPDELLYGRAGYLYALLYLNTEIGPGTVCESAIKEVVNAIIESGKTLSREERKTERCPLLYQWHRKQYVGAAHGMAGIYYMLMQPAAKVDQETLTEMVKPSIDYVRHKKFRSGNYPSSLSNETDRLVHWCHGAPGVIHMLMQAYKVFKEEKYLKEAMECSDVIWQRGLLRKGYGICHGTAGNGYSFLSLYRLTQDKKYLYRACKFAEWCLDYGAHGCRIPDRPYSLFEGMAGAIHFLSDVLGPETSRFPAFELDSSKRD
modifications: N-terminal glycine myristoylation
apparent FRET efficiency (plasmamembrane ROIs) [2]: 20%
apparent FRET efficiency (whole-cell regions) [2]: 20%
